In patent US20090022728A1 (RINAT NEUROSCIENCE, published 2009):

What was measured:
Aβ1-40 peptide = biological target: T1, Aβ1-40 peptide; assay: ELISA, nonbiotinylated peptide on plate
T1 construct: synthetic peptide, not biotinylated; also called 1-40 (WT); beta amyloid 1-40
Method: (§1) ELISA was used for measuring binding of antibody 6G and variants to nonbiotinylated Aβ peptides. NUNC maxisorp plates were coated with 2.5 ug/ml of Aβ peptides in PBS pH 7.4 for more than 1 hour at 4° C. Plates were blocked with 1% BSA in PBS buffer pH 7.4. Primary antibody (from cell supernatants, serum containing anti-Aβ antibody, or purified full antibody or Fabs at desired dilution) was incubated with the immobilized Aβ peptides for 1 h at room temperature. After washing, the plates were incubated with secondary antibody, a HRP conjugated goat anti-human kappa chain antibody (MP Biomedicals, 55233) at 1:5000 dilution. After washing, bound secondary antibody was measured by adding TMB substrate (KPL, 50-76-02, 50-65-02). The HRP reaction was stopped by adding 1M phosphoric acid and absorbance at 450 nm was measured.
(§2) All amino acid substitutions of the variants shown in Table 8 are described relative to the sequence of 6G. Binding was determined by ELISA described above with nonbiotinylated Aβ₁₋₄₀ or Aβ₁₋₄₂ immobilized on the surface of an ELISA plate.

Aβ1-42 peptide = biological target: T2, Aβ1-42 peptide; assay: ELISA, nonbiotinylated peptide on plate
T2 construct: also called 1-42 (WT)
Method: as §1, §2

T1 sequence (peptide, as listed by the source): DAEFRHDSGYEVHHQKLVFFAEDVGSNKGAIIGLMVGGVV
T2 sequence (peptide, as listed by the source): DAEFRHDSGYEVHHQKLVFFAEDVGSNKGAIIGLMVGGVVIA

| Binder | A450 ELISA (Aβ1-40 peptide) | A450 ELISA (Aβ1-42 peptide) |
| --- | --- | --- |
| 6G heavy chain variant 3C (D103G) (antibody, V domains shown) VH: QVQLVQSGAEVKKPGASVKVSCKASGYTFTTYAIHWVRQAPGQGLEWMGFTSPYSGVSNYNQKFKGRVTMTRDTSTSTVYMELSSLRSEDTAVYYCARFDNYGRGYVRDYWGQGTLVTVS VL: DIVMTQSPDSLAVSLGERATINCRASESVDNDRISFLNWYQQKPGQPPKLLIYAATKQGTGVPDRFSGSGSGTDFTLTISSLQAEDVAVYYCQQSKEFPWSFGGGTKVEIKR | 2.3 A450 | 0.76 A450 |
| 6G heavy chain variant 4D (R104Q) (antibody, V domains shown) VH: QVQLVQSGAEVKKPGASVKVSCKASGYTFTTYAIHWVRQAPGQGLEWMGFTSPYSGVSNYNQKFKGRVTMTRDTSTSTVYMELSSLRSEDTAVYYCARFDNYDQGYVRDYWGQGTLVTVS VL: DIVMTQSPDSLAVSLGERATINCRASESVDNDRISFLNWYQQKPGQPPKLLIYAATKQGTGVPDRFSGSGSGTDFTLTISSLQAEDVAVYYCQQSKEFPWSFGGGTKVEIKR | 2.45 A450 | 1 A450 |
| 6G light chain variant 6C (E97G) (antibody, V domains shown) VH: QVQLVQSGAEVKKPGASVKVSCKASGYTFTTYAIHWVRQAPGQGLEWMGFTSPYSGVSNYNQKFKGRVTMTRDTSTSTVYMELSSLRSEDTAVYYCARFDNYDRGYVRDYWGQGTLVTVS VL: DIVMTQSPDSLAVSLGERATINCRASESVDNDRISFLNWYQQKPGQPPKLLIYAATKQGTGVPDRFSGSGSGTDFTLTISSLQAEDVAVYYCQQSKGFPWSFGGGTKVEIKR | 0.05 A450 | 0.05 A450 |
| 6G light chain variant 6E (E97P) (antibody, V domains shown) VH: QVQLVQSGAEVKKPGASVKVSCKASGYTFTTYAIHWVRQAPGQGLEWMGFTSPYSGVSNYNQKFKGRVTMTRDTSTSTVYMELSSLRSEDTAVYYCARFDNYDRGYVRDYWGQGTLVTVS VL: DIVMTQSPDSLAVSLGERATINCRASESVDNDRISFLNWYQQKPGQPPKLLIYAATKQGTGVPDRFSGSGSGTDFTLTISSLQAEDVAVYYCQQSKPFPWSFGGGTKVEIKR | 0.12 A450 |  |
| 6G light chain variant 10E (S95L) (antibody, V domains shown) VH: QVQLVQSGAEVKKPGASVKVSCKASGYTFTTYAIHWVRQAPGQGLEWMGFTSPYSGVSNYNQKFKGRVTMTRDTSTSTVYMELSSLRSEDTAVYYCARFDNYDRGYVRDYWGQGTLVTVS VL: DIVMTQSPDSLAVSLGERATINCRASESVDNDRISFLNWYQQKPGQPPKLLIYAATKQGTGVPDRFSGSGSGTDFTLTISSLQAEDVAVYYCQQLKEFPWSFGGGTKVEIKR | 0.08 A450 |  |
| 6G heavy chain variant 10G (Y102I) (antibody, V domains shown) VH: QVQLVQSGAEVKKPGASVKVSCKASGYTFTTYAIHWVRQAPGQGLEWMGFTSPYSGVSNYNQKFKGRVTMTRDTSTSTVYMELSSLRSEDTAVYYCARFDNIDRGYVRDYWGQGTLVTVS VL: DIVMTQSPDSLAVSLGERATINCRASESVDNDRISFLNWYQQKPGQPPKLLIYAATKQGTGVPDRFSGSGSGTDFTLTISSLQAEDVAVYYCQQSKEFPWSFGGGTKVEIKR | 0.63 A450 | 0.22 A450 |
| 6G heavy chain variant 8H (N101H) (antibody, V domains shown) VH: QVQLVQSGAEVKKPGASVKVSCKASGYTFTTYAIHWVRQAPGQGLEWMGFTSPYSGVSNYNQKFKGRVTMTRDTSTSTVYMELSSLRSEDTAVYYCARFDHYDRGYVRDYWGQGTLVTVS VL: DIVMTQSPDSLAVSLGERATINCRASESVDNDRISFLNWYQQKPGQPPKLLIYAATKQGTGVPDRFSGSGSGTDFTLTISSLQAEDVAVYYCQQSKEFPWSFGGGTKVEIKR |  | 0.19 A450 |
| 6G heavy chain variant 9E (N101R) (antibody, V domains shown) VH: QVQLVQSGAEVKKPGASVKVSCKASGYTFTTYAIHWVRQAPGQGLEWMGFTSPYSGVSNYNQKFKGRVTMTRDTSTSTVYMELSSLRSEDTAVYYCARFDRYDRGYVRDYWGQGTLVTVS VL: DIVMTQSPDSLAVSLGERATINCRASESVDNDRISFLNWYQQKPGQPPKLLIYAATKQGTGVPDRFSGSGSGTDFTLTISSLQAEDVAVYYCQQSKEFPWSFGGGTKVEIKR |  | 0.26 A450 |
| 6G light chain variant 7F (Q94K) (antibody, V domains shown) VH: QVQLVQSGAEVKKPGASVKVSCKASGYTFTTYAIHWVRQAPGQGLEWMGFTSPYSGVSNYNQKFKGRVTMTRDTSTSTVYMELSSLRSEDTAVYYCARFDNYDRGYVRDYWGQGTLVTVS VL: DIVMTQSPDSLAVSLGERATINCRASESVDNDRISFLNWYQQKPGQPPKLLIYAATKQGTGVPDRFSGSGSGTDFTLTISSLQAEDVAVYYCQKSKEFPWSFGGGTKVEIKR | 0.12 A450 |  |
| 6G light chain variant 5B (Q94G) (antibody, V domains shown) VH: QVQLVQSGAEVKKPGASVKVSCKASGYTFTTYAIHWVRQAPGQGLEWMGFTSPYSGVSNYNQKFKGRVTMTRDTSTSTVYMELSSLRSEDTAVYYCARFDNYDRGYVRDYWGQGTLVTVS VL: DIVMTQSPDSLAVSLGERATINCRASESVDNDRISFLNWYQQKPGQPPKLLIYAATKQGTGVPDRFSGSGSGTDFTLTISSLQAEDVAVYYCQGSKEFPWSFGGGTKVEIKR | 0.09 A450 |  |
| 6G light chain variant 8G (E97V) (antibody, V domains shown) VH: QVQLVQSGAEVKKPGASVKVSCKASGYTFTTYAIHWVRQAPGQGLEWMGFTSPYSGVSNYNQKFKGRVTMTRDTSTSTVYMELSSLRSEDTAVYYCARFDNYDRGYVRDYWGQGTLVTVS VL: DIVMTQSPDSLAVSLGERATINCRASESVDNDRISFLNWYQQKPGQPPKLLIYAATKQGTGVPDRFSGSGSGTDFTLTISSLQAEDVAVYYCQQSKVFPWSFGGGTKVEIKR | 2.6 A450 | 0.9 A450 |
| 6G light chain variant 5H (E97R) (antibody, V domains shown) VH: QVQLVQSGAEVKKPGASVKVSCKASGYTFTTYAIHWVRQAPGQGLEWMGFTSPYSGVSNYNQKFKGRVTMTRDTSTSTVYMELSSLRSEDTAVYYCARFDNYDRGYVRDYWGQGTLVTVS VL: DIVMTQSPDSLAVSLGERATINCRASESVDNDRISFLNWYQQKPGQPPKLLIYAATKQGTGVPDRFSGSGSGTDFTLTISSLQAEDVAVYYCQQSKRFPWSFGGGTKVEIKR | 2.6 A450 | 0.85 A450 |
| 6G light chain variant 7E (Q94R) (antibody, V domains shown) VH: QVQLVQSGAEVKKPGASVKVSCKASGYTFTTYAIHWVRQAPGQGLEWMGFTSPYSGVSNYNQKFKGRVTMTRDTSTSTVYMELSSLRSEDTAVYYCARFDNYDRGYVRDYWGQGTLVTVS VL: DIVMTQSPDSLAVSLGERATINCRASESVDNDRISFLNWYQQKPGQPPKLLIYAATKQGTGVPDRFSGSGSGTDFTLTISSLQAEDVAVYYCQRSKEFPWSFGGGTKVEIKR | 0.09 A450 |  |
| 6G light chain variant 2H (Q93K) (antibody, V domains shown) VH: QVQLVQSGAEVKKPGASVKVSCKASGYTFTTYAIHWVRQAPGQGLEWMGFTSPYSGVSNYNQKFKGRVTMTRDTSTSTVYMELSSLRSEDTAVYYCARFDNYDRGYVRDYWGQGTLVTVS VL: DIVMTQSPDSLAVSLGERATINCRASESVDNDRISFLNWYQQKPGQPPKLLIYAATKQGTGVPDRFSGSGSGTDFTLTISSLQAEDVAVYYCKQSKEFPWSFGGGTKVEIKR | 0.07 A450 | 0.13 A450 |
| 6G heavy chain variant 11D (Y102M) (antibody, V domains shown) VH: QVQLVQSGAEVKKPGASVKVSCKASGYTFTTYAIHWVRQAPGQGLEWMGFTSPYSGVSNYNQKFKGRVTMTRDTSTSTVYMELSSLRSEDTAVYYCARFDNMDRGYVRDYWGQGTLVTVS VL: DIVMTQSPDSLAVSLGERATINCRASESVDNDRISFLNWYQQKPGQPPKLLIYAATKQGTGVPDRFSGSGSGTDFTLTISSLQAEDVAVYYCQQSKEFPWSFGGGTKVEIKR | 0.29 A450 | 0.24 A450 |
| 6G light chain variant 3A (Q93P) (antibody, V domains shown) VH: QVQLVQSGAEVKKPGASVKVSCKASGYTFTTYAIHWVRQAPGQGLEWMGFTSPYSGVSNYNQKFKGRVTMTRDTSTSTVYMELSSLRSEDTAVYYCARFDNYDRGYVRDYWGQGTLVTVS VL: DIVMTQSPDSLAVSLGERATINCRASESVDNDRISFLNWYQQKPGQPPKLLIYAATKQGTGVPDRFSGSGSGTDFTLTISSLQAEDVAVYYCPQSKEFPWSFGGGTKVEIKR | 0.08 A450 | 0.13 A450 |
| 6G light chain variant 6D (E97T) (antibody, V domains shown) VH: QVQLVQSGAEVKKPGASVKVSCKASGYTFTTYAIHWVRQAPGQGLEWMGFTSPYSGVSNYNQKFKGRVTMTRDTSTSTVYMELSSLRSEDTAVYYCARFDNYDRGYVRDYWGQGTLVTVS VL: DIVMTQSPDSLAVSLGERATINCRASESVDNDRISFLNWYQQKPGQPPKLLIYAATKQGTGVPDRFSGSGSGTDFTLTISSLQAEDVAVYYCQQSKTFPWSFGGGTKVEIKR | 2.41 A450 | 1.34 A450 |
| 6G heavy chain variant 6F (R104S) (antibody, V domains shown) VH: QVQLVQSGAEVKKPGASVKVSCKASGYTFTTYAIHWVRQAPGQGLEWMGFTSPYSGVSNYNQKFKGRVTMTRDTSTSTVYMELSSLRSEDTAVYYCARFDNYDSGYVRDYWGQGTLVTVS VL: DIVMTQSPDSLAVSLGERATINCRASESVDNDRISFLNWYQQKPGQPPKLLIYAATKQGTGVPDRFSGSGSGTDFTLTISSLQAEDVAVYYCQQSKEFPWSFGGGTKVEIKR | 2.28 A450 | 0.62 A450 |
| 6G heavy chain variant 4B (R104F) (antibody, V domains shown) VH: QVQLVQSGAEVKKPGASVKVSCKASGYTFTTYAIHWVRQAPGQGLEWMGFTSPYSGVSNYNQKFKGRVTMTRDTSTSTVYMELSSLRSEDTAVYYCARFDNYDFGYVRDYWGQGTLVTVS VL: DIVMTQSPDSLAVSLGERATINCRASESVDNDRISFLNWYQQKPGQPPKLLIYAATKQGTGVPDRFSGSGSGTDFTLTISSLQAEDVAVYYCQQSKEFPWSFGGGTKVEIKR | 2.48 A450 | 0.71 A450 |
